T1: CAPRIN-1 protein expressed on the cell membrane surface of human cancer cell lines (human, UniProt Q14444 2-709)
T1 construct: whole, on cells; also called human CAPRIN-1; Cytoplasmic- and proliferation-associated protein 1
T1 sequence (looked up): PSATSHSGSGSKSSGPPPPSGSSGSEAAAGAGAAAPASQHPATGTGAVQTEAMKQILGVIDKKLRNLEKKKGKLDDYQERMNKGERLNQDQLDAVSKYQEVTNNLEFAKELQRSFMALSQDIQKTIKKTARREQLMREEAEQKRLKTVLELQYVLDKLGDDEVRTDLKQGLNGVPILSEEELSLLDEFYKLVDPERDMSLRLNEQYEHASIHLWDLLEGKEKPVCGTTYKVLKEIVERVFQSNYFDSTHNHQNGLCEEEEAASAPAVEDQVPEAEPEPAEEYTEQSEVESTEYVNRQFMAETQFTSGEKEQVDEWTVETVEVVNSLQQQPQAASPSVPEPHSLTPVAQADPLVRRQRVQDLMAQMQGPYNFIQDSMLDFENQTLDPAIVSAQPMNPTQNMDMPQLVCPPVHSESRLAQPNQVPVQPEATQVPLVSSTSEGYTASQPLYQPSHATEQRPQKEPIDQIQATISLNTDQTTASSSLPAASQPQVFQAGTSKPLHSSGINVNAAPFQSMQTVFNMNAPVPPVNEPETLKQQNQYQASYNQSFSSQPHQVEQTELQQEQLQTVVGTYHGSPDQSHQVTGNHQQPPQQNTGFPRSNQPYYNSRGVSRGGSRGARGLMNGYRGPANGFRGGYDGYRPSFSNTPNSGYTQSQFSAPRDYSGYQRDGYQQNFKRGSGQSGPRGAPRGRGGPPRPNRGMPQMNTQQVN

B1: mouse-chicken chimeric antibody #1 (antibody, mouse IgG1, V domains shown)
VH: AVTLDESGGGLQMSRGGLSLVCKASGFDFSSYQMNWIRQAPGKGLEFVAAINKFGNSTGHGAAVKGRVTISRDNGQSTVRLQLNNLRAEDTAIYFCTKHAYGYCGSGTWCAAGEIDAWGHGTEVIVSS
VL: QAASTQPSSVSANPGETVEITCSGGGSYSYGWFQQKSPGSAPVTVIYYNNKRPSDIPSRFSGSKSGSTGTLTITGVQADDEAVYYCGSGDSTDTAVFGAGTTLTVLG
notes: from CHO-K1 culture supernatant; also called anti-CAPRIN-1 mouse-chicken chimeric antibody #1
B2: mouse monoclonal antibody #12 (antibody, V domains shown)
VH: EVQLHQFGAELVKPGASVKISCKASGYTFTDYNMDWVKQSHGKSLEWIGDINPNYDSTSYNQKFKGKATLTVDKSSSTAYMELRSLTSEDTAVYYCARSRSYDYEGFAYWGQGTLVTVSA
VL: DIQMTQSPASLSASVGETVTITCRASGNIHNYLAWYQQKQGKSPQLLVYNAKTLADGVPSRFSGSGSGTQYSLKINSLQPEDFGSYYCQHFWSTLTFGAGTKLELKR
notes: Mouse hybridoma antibody; also called anti-CAPRIN-1 mouse monoclonal antibody #12
B3: mouse monoclonal antibody #15 (antibody, V domains shown)
VH: B2 VH
VL: SGDRVSLSCRASQSISNYLHWYQQKSHESPRLLIKYASQSISGIPSRFSGSGSGTDFTLSINSVETEDFGMYFCQQSNSWPYTFGAGTKLEIKQ
notes: Mouse hybridoma antibody; also called anti-CAPRIN-1 mouse monoclonal antibody #15
B4: mouse monoclonal antibody #14 (antibody, V domains shown)
VH: B2 VH
VL: DIQLTQSPASLSASVGETVTITCRASGNIHNYLAWYQQKQGKSPQLLVYNAKTLADGVPSRFSGSGSGTQYSLKINSLQPEDFGSYYCQHFWSTLTFGGGTKLEIK
notes: Mouse hybridoma antibody; also called anti-CAPRIN-1 mouse monoclonal antibody #14
B5: mouse monoclonal antibody #3 (antibody, V domains shown)
VH: GGGLVKPGGSLKLSCAASGFTFSSYGMSWVRQTPEKRLEWVATISSGGSYTYYPDSVKGRFTISRDNAKNTLYLQMSSLRSEDTAMYYCASLASYYFDYWGQGTTLTVSS
VL: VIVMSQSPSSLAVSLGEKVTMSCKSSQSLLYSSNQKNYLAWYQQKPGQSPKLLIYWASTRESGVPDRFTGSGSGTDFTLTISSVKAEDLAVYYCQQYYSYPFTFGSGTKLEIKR
B6: human-chicken chimeric antibody #2 (antibody, human IgG1, kappa, V domains shown)
VH: AVTLDESGGGLQTPGGGLSLVCKASGFTFSSFDMGWVRQAPGKGLEFVAQINDAGSRTWYATAVKGRATISRDNGQTTVRLQLNNLRAEDTGTYYCTRGSGYVGAGAIDAWGHGTEVIVSA
VL: AALTQPSSVSANPGETVKITCSGGSGYYGWYQQQKSPGSAPVTVIYQNDKRPSDIPSRFSGSGSGSTNTLTITGVQAEDEAVYFCGRYDSTDSGIFGAGTTLTVLT
B7: mouse monoclonal antibody #18 (antibody, V domains shown)
VH: LQESGAELARPGASVKLSCKASGYTFTSYWMQWVKQRPGQGLEWIGAIYPGDGDTRYTQKFKGKATLTADKSSSTAYMQLSSLASEDSAVYYCARGEYGNYFAYWGQGTTVTVSS
VL: TSDASLGERVTITCKASQDINSYLSWFQQKPGKSPKTLIYRANRLVDGVPSRFSGSGSGQDYSLTISSLEYEDMGIYYCLQYDEFPLTFGGGTKLEIKQ
notes: Mouse hybridoma antibody; also called anti-CAPRIN-1 mouse monoclonal antibody #18
B8: mouse-chicken chimeric antibody #2 (antibody, mouse IgG1, V domains shown)
VH: AVTLDESGGGLQTPGGGLSLVCKASGFTFSSFDMGWVRQAPGKGLEFVAQINDAGSRTWYATAVKGRATISRDNGQTTVRLQLNNLRAEDTGTYYCTRGSGYVGAGAIDAWGHGTEVIVS
VL: AALTQPSSVSANPGETVKITCSGGSGYYGWYQQQKSPGSAPVTVIYQNDKRPSDIPSRFSGSGSGSTNTLTITGVQAEDEAVYFCGRYDSTDSGIFGAGTTLTVL
notes: also called anti-CAPRIN-1 mouse-chicken chimeric antibody #2
B9: mouse monoclonal antibody #13 (antibody)
chain 1: EVQLHQFGAELVKPGASVKISCKASGYTFTDYNMDWVKQSHGKSLEWIGDINPNYDSTSYNQKFKGKATLTVDKSSSTAYMELRSLTSEDTAVYYCARSRSYDYEGFAYWGQGTLVTVSAAKTTPPSVY
chain 2: AVLRCSRGLLVIWISDIQLTQSPSSLAVTAGEKVTMSCKSSQSLLWSVNQKNYLSWYQQKQRQPPKLLIYGASIRESWVPDRFTGSGSGTDFTLTISNVHAEDLAVYYCQHNHGSFLPSRSEQVPSWRSNNR
B10: mouse monoclonal antibody #8 (antibody, V domains shown)
VH: GGGLVKPGGSLKLSCAASGFAFSSYDMSWIRQTPEKRLEWVAYISSGAGSTYYPDTVKGRFTVSRDNAKNTLYLQMSSLKSEDTAMYYCARHFYRFDYWGQGTTVTVSS
VL: SIVMTQTPKFLLVSAGDRITITCKASQSVSNDVAWYQQKPGQSPKLLIYYASNRYTGVPDRFTGSGYGTDFTFTISTVQAEDLAVYFCQQDDRFPLTFGAGPS
notes: Mouse hybridoma antibody; also called anti-CAPRIN-1 mouse monoclonal antibody #8
B11: mouse monoclonal antibody #6 (antibody)
chain 1: DAELVKPGASVKISCKASGYTFTDHSIHWVQQKPEQGLEWIGYISPGNGNIKYNEKFKGKATLTADKSSSTAYMQLNSLTSEDSAVYFCKRSLGRGGPYYFDYWGQGTTVTVSS
chain 2: DIVLTQAAPSLPVTPGESVSISCRSSKSLLHSNGNTYLYWFLQRPGQSPQLLIYRMSNLASGVPDRFSGSGSGTAFTLRISRVEAEDVGVYYCMQHREYPVTFGSGPN
B12: mouse-chicken chimeric antibody #3 (antibody, mouse IgG1, V domains shown)
VH: AVTLDESGGGLQTPGGALSLVCKASGFTFSGYDMLWVRQAPGKGLEWVAGIGSTGGGTDYGAAVKGRATISRDNGQSTVRLQLNNLRAEDTATYYCAKVAGGCNSGYCRDSPGSIDAWGHGTEVIVS
VL: AVTQQPASVSANPGETVKITCSGGGSRNYYGWYQQKSPGSVPVTVIYYDDQRPSNIPSRFSGALSGSTSTLTITGVQADDEAVYFCGSADSNTYEGSFGAGTTLTVL
notes: also called anti-CAPRIN-1 mouse-chicken chimeric antibody #3

Columns and labels:
[1] = target: T1, CAPRIN-1 protein expressed on the cell …; experiment: flow cytometry on Capan-2, MIAPaCa-2, PANC-1 and BxPC-3 cells, vs isotype control
Description: Next, four pancreatic cancer cell lines (Capan-2, MIAPaCa-2, PANC-1, and BxPC-3) confirmed to have CAPRIN-1 gene expression were examined for their expression of CAPRIN-1 protein on the cell surface. 10⁶ cells of each cell line were centrifuged in each 1.5-ml microcentrifuge tube. The cancer cell surface-reactive anti-CAPRIN-1 mouse monoclonal antibodies #1 to #22 prepared in Example 4 and the culture supernatant (100 μl) containing the anti-CAPRIN-1 mouse-chicken chimeric antibody #1, #2, or #3 prepared in the preceding paragraph (2) were separately added to the tubes and left standing for 1 hour on ice. After washing with PBS, the cells were suspended in FITC-labeled goat anti-mouse IgG antibodies (manufactured by Invitrogen Corp.) diluted 500-fold with PBS containing 0.1% FBS and left standing for 1 hour on ice. After washing with PBS, the fluorescence intensity was measured using FACSCalibur (Becton, Dickinson and Company). On the other hand, the same operation as above was performed using isotype control antibodies, instead of the anti-CAPRIN-1 mouse monoclonal antibodies #1 to #22 and the culture supernatant containing the mouse-chicken chimeric antibody #1, #2, or #3, to prepare a control. As a result, all the cells supplemented with any of the monoclonal antibodies #1 to #22 and the mouse-chicken chimeric antibodies #1, #2, and #3 had fluorescence intensity at least 20% stronger than that of the control. […] The above rate of enhancement in fluorescence intensity was indicated by the rate of increase in mean fluorescence intensity (MFI) in each cell line and calculated according to the following expression: […]

[2] = target: T1, CAPRIN-1 protein expressed on the cell …; experiment: cell-based or functional assay

Binder	rate of increase in mean fluorescence intensity [1]	cytotoxic activity (ADCC) against MIAPaCa-2 and Capan-2 [2]
B1	≥ 20%	–
B2	≥ 20%	≥ 10%
B3	≥ 20%	≥ 10%
B4	≥ 20%	≥ 10%
B5	≥ 20%	≥ 10%
B6	–	≥ 10%
B7	≥ 20%	≥ 10%
B8	≥ 20%	–
B9	≥ 20%	≥ 10%
B10	≥ 20%	≥ 10%
B11	≥ 20%	≥ 10%
B12	≥ 20%	–
